Measurements published in IntAct's records for PubMed 22648170.

B1: Disabled homolog 2 (Mus musculus), P98078-1 (parent)
chain: MSNEVETSTTNGQPDQQAAPKAPSKKEKKKGSEKTDEYLLARFKGDGVKYKAKLIGIDDVPDARGDKMSQDSMMKLKGMAAAGRSQGQHKQRIWVNISLSGIKIIDEKTGVIEHEHPVNKISFIARDVTDNRAFGYVCGGEGQHQFFAIKTGQQAEPLVVDLKDLFQVIYNVKKKEEDKKKVEEANKAEENGSEALMTLDDQANKLKLGVDQMDLFGDMSTPPDLNSPTESKDILLVDLNSEIDTNQNSLRENPFLTNGVTSCSLPRPKPQASFLPENAFSANLNFFPTPNPDPFRDDPFAQPDQSAPSSFDSLTSPDQKKASLSSSSTPQSKGPLNGDTDYFGQQFDQLSNRTGKPEAQGGPWPYPSSQTQQAVRTQNGVSEREQNGFHIKSSPNPFVGSPPKGLSVPNGVKQDLESSVQSSAHDSIAIIPPPQSTKPGRGRRTAKSSANDLLASDIFASEPPGQMSPTGQPAVPQSNFLDLFKGNAPAPVGPLVGLGTVPVTPPQAGPWTPVVYSPSTTVVPGAIISGQPPSFRQPLVFGTTPAVQVWNQSPSFATPASPPPPTVWCPTTSVAPNAWSSTSPLGNPFQSNNIFPPPTMSTQSSPQPMMSSVLATPPQPPPRNGPLKDIPSDAFTGLDPLGDKEVKEVKEMFKDFQLRQPPLVPSRKGETPPSGTSSAFSSYFNNKVGIPQEHVDHDDFDANQLLNKINEPPKPAPRQGVLLGTKSADNSLENPFSKGFSSSNPSVVSQPASSDPHRSPFGNPFA
partner: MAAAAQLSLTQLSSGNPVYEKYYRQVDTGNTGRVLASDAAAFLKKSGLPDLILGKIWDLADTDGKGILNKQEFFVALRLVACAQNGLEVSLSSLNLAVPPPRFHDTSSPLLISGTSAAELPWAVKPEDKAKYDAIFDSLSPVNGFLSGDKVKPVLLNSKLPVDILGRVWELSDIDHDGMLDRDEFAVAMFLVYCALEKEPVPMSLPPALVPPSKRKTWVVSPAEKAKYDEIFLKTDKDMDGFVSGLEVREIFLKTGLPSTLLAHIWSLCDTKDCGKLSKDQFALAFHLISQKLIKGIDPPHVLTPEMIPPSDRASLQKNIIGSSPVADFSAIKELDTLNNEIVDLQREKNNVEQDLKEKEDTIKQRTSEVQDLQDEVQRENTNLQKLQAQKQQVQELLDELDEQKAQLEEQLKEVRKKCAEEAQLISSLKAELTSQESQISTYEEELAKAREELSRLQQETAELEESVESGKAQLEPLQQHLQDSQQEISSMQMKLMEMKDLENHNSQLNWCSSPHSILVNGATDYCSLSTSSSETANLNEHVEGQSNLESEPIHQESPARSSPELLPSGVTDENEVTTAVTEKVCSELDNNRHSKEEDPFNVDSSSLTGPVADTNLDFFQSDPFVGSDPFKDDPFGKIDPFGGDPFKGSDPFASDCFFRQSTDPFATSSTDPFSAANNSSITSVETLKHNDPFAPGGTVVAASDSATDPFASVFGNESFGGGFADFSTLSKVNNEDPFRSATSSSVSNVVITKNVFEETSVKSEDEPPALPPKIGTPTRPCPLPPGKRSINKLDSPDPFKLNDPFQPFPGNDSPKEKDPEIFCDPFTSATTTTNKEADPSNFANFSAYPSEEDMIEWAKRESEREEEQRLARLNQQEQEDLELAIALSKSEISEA
B2: Disabled homolog 2 (Mus musculus), P98078-1 (parent)
chain: B1 chain

Variants of: B1
Conditions: with eps15_human EPS15, P42566
In the case of F589V;F736V;F765V, the “effect of a mutation on the interaction” value is reported as “disrupting interaction”.

Variants of: B2
Conditions: with itsn1_mouse Itsn1, Q9Z0R4
Sequence of itsn1_mouse Itsn1, Q9Z0R4 (Q9Z0R4 whole entry): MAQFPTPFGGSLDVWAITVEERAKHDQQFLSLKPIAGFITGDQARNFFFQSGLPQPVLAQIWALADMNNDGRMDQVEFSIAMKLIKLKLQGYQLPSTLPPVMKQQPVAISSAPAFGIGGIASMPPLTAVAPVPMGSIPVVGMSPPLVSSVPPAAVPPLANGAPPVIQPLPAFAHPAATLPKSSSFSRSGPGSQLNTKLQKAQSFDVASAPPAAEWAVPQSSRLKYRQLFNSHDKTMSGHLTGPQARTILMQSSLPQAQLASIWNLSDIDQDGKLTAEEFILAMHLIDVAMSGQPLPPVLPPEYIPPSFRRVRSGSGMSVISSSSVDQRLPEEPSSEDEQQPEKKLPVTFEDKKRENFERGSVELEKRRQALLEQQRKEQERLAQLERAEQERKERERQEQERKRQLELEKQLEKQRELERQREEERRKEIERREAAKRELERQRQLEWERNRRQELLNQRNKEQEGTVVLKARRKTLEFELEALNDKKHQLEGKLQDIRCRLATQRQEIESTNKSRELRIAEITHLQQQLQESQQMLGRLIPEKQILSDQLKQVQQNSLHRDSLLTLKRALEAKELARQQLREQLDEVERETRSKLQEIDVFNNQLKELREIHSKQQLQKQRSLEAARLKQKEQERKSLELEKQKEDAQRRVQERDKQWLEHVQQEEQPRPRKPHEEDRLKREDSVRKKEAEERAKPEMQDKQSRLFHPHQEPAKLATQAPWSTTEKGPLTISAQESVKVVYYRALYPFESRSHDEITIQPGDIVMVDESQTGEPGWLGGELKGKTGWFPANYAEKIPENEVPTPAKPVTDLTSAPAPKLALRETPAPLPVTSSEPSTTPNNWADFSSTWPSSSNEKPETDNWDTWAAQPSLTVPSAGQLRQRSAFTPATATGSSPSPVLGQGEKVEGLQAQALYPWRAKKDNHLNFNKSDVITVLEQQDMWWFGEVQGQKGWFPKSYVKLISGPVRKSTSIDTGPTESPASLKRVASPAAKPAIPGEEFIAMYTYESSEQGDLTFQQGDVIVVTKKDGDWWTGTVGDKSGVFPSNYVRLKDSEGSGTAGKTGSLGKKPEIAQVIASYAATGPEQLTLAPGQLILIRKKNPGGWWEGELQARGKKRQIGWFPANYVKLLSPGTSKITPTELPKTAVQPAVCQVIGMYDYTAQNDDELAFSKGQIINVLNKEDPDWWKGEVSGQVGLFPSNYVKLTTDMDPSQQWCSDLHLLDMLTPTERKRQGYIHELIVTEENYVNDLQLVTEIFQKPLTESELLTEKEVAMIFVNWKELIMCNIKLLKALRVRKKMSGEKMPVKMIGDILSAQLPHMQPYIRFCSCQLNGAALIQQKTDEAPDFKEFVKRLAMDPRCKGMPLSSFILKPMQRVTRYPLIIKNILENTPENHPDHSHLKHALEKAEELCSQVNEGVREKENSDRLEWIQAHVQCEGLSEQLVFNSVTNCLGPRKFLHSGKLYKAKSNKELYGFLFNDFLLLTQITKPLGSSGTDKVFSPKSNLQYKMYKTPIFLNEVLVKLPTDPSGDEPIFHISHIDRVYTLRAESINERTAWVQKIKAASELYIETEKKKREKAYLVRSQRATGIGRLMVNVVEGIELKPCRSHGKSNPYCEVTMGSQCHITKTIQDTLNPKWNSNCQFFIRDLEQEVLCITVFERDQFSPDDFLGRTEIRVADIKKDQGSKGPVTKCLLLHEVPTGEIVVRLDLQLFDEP
In the case of F589V;F736V;F765V, the “effect of a mutation on the interaction” value is reported as “decreasing interaction”. F255V;F398V;F589V;F736V;F765V was tested, and the “effect of a mutation on the interaction” value was “disrupting interaction”. For F255V;F398V, the “effect of a mutation on the interaction” value was “decreasing interaction”.
